From patent publication US20190352428A1 (Seagen, published 2019)

How the values were obtained:
CD19 [1] = molecular target: CD19 (UniProt P15391); test: competition FACS, Raji cells; unit and quantity not given
CD19 [2] = molecular target: CD19 (UniProt P15391); test: competition FACS, Raji cells; vs parent
CD19 [3] = molecular target: CD19 (UniProt P15391); test: cell-based or functional assay
CD19 [4] = molecular target: T1, CD19 (UniProt P15391 20-556, limits assumed); test: FACS competition, Raji cells; fold vs hBU12ec
T1 construct: whole, on cells; Target of hBU12
T1 sequence (looked up): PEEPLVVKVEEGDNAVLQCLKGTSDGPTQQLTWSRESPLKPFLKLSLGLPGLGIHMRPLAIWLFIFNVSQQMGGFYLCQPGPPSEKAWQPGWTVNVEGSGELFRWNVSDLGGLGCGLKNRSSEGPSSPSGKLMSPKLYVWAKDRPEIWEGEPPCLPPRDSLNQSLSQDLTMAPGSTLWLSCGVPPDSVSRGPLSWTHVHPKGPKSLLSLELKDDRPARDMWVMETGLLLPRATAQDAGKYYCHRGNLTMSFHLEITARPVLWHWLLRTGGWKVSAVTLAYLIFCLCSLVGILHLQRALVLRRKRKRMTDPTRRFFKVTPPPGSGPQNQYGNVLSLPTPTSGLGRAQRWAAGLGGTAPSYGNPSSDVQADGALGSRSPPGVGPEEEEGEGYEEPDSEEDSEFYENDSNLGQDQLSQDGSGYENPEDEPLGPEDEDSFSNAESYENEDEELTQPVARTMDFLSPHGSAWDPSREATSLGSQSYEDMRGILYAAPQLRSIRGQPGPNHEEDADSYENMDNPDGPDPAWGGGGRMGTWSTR
Procedure: (§1) To evaluate cell binding of masked antibodies, 2×10⁵ of indicated cells (Raji, Ramos, PC3, Daudi) were combined with fluorescently labeled parent antibody mixed with serial dilutions of competitor (masked antibody) in staining buffer (PBS, 2% FBS, 0.2% NaN3). Samples were incubated for 1 hour on ice and washed twice with ice-cold staining buffer. Labeled cells were examined by flow cytometry on a BD LSRII gated to exclude nonviable cells and analyzed using Flowing Software (Turku Centre for Biotechnology). The IC50 was calculated using GraphPad Prism 6.
(§2) Four antibodies (hBU12 against CD19, anti-Antigen 1 antibody against Antigen 1 (cAg-1), 1C1 against EphA2 and HuMab CD74-011 against CD74) were tested using the coiled coil blocking domains. The antibody CD74 comprises a light chain (SEQ ID NO: 1) and a heavy chain (SEQ ID NO: 2). Sequences for A3B3, A4B4, CVel, antipO, and dHLX were N-terminally fused to the light and heavy chains of the antibodies. To test for binding, FACs-based competition assays were utilized to account for high concentrations of competitor necessary to displace the parent antibody and the results are listed in Tables 2-5. Other antibodies that can be conjugated to a coiled-coil peptide are SEQ ID NOs: 3-19. SEQ ID NO: 3 is the amino acid sequence of hBU12 heavy chain variable region, and SEQ ID NO: 4 is the amino acid sequence of hBU12 light chain variable region. […]

CD19 [5] = molecular target: T1, CD19; test: FACS competition, Raji cells; fold vs unmasked hBU12ec
Procedure: as §1
(§3) Activity was tested using the hBU12 antibody, cAg-1, 1C1, HuMab-CD74-011, and an antibody against Antigen 2, designated hAg-2.

CD74 = molecular target: T2, CD74 (UniProt P04233 1-296); test: FACS competition, Daudi cells; fold vs unmasked HuMab-CD74-011
T2 construct: whole, on cells; Target of HuMab-CD74-011
T2 sequence (looked up): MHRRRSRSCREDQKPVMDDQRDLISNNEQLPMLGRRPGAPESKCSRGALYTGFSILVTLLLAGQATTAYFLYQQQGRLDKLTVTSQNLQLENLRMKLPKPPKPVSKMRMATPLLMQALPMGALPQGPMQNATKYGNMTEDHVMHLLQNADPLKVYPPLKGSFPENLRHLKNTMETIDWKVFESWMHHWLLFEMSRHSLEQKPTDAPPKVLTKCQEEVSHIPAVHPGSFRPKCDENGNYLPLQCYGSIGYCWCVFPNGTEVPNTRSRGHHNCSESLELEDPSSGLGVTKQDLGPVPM
Procedure: as §1, §3

CD19 [6] = molecular target: T1, CD19; test: cell-based or functional assay
CD19 [7] = molecular target: T1, CD19; test: FACS competition with labeled parent hBU12, Raji cells
Procedure: as §1, §2

B1: Cvel-1910(2) (antibody)
VH: EACGASTSVDELQAEVDQLEDENYALKTKVAQLRKKVEKLGSIPVSLRSGQVQLQESGPGLVKPSQTLSLTCTVSGGSISTSGMGVGWIRQHPGKGLEWIGHIWWDDDKRYNPALKSRVTISVDTSKNQFSLKLSSVTAADTAVYYCARMELWSYYFDYWGQGTLVTVSS
VL: EACGASTTVAQLEEKVKTLRAENYELKSEVQRLEEQVAQLGSIPVSLRSGEIVLTQSPATLSLSPGERATLSCSASSSVSYMHWYQQKPGQAPRLLIYDTSKLASGIPARFSGSGSGTDFTLTISSLEPEDVAVYYCFQGSVYPFTFGQGTKLEIKR
modifications: PBD drug-linker on the engineered cysteine at position 239 of the heavy chain constant region
With B1 the Binding Data (CD19 [1]) was > 600, the Binding Data (fold decrease per paragraph 159) (CD19 [2]) was > 160 fold and the Cytotoxicity Data Fold Change, Ramos cells (CD19 [3]) was 1320 fold. It also gave a Cytotoxicity Data IC50 (ng/mL), Ramos cells (CD19 [3]) of 100 ng/mL.

B2: Cvel hBU12ec (antibody)
VH: EACGASTSVDELQAEVDQLEDENYALKTKVAQLRKKVEKLGSIPVSLRSGQVQLQESGPGLVKPSQTLSLTCTVSGGSISTSGMGVGWIRQHPGKGLEWIGHIWWDDDKRYNPALKSRVTISVDTSKNQFSLKLSSVTAADTAVYYCARMELWSYYFDYWGQGTLVTVSS
VL: EACGASTTVAQLEEKVKTLRAENYELKSEVQRLEEQVAQLGSIPVSLRSGEIVLTQSPATLSLSPGERATLSCSASSSVSYMHWYQQKPGQAPRLLIYDTSKLASGIPARFSGSGSGTDFTLTISSLEPEDVAVYYCFQGSVYPFTFGQGTKLEIKR
notes: the linker/protease site is not restated for this antibody; S239C constant region
B2 was tested, and the “Fold Change” value (CD19 [4]) was > 300 fold and the “fold decrease in binding” value (CD19 [5]) was > 300 fold.

B3: CVel HuMab-CD74-011 (antibody)
heavy: EACGASTSVDELQAEVDQLEDENYALKTKVAQLRKKVEKLGSIPVSLRSGQVQLVESGGGVVQPGRSLRLSCAASGFTFSSYGMHWVRQAPDKGLEWVAVIWYDGSNKYYADSVKGRFTISRDNSKNTLYLQMNSLRAEDTAVYYCARGGTLVRGAMYGTDVWGQGTTVTVSS
light: EACGASTTVAQLEEKVKTLRAENYELKSEVQRLEEQVAQLGSIPVSLRSGDIQMTQSPSSLSASVGDRVTITCRASQGISSWLAWYQQKPEKAPKSLIYAASSLQSGVPSRFSGSGSGTDFTLTISSLQPEDFATYYCQQYNSYPLTFGGGTKVEIK
notes: not restated for this antibody
For B3, the “fold decrease in binding” value (CD74) was 26 fold.

B4: hBU12ec-1910(2) (antibody, V domains shown)
VH: QVQLQESGPGLVKPSQTLSLTCTVSGGSISTSGMGVGWIRQHPGKGLEWIGHIWWDDDKRYNPALKSRVTISVDTSKNQFSLKLSSVTAADTAVYYCARMELWSYYFDYWGQGTLVTVSS
VL: EIVLTQSPATLSLSPGERATLSCSASSSVSYMHWYQQKPGQAPRLLIYDTSKLASGIPARFSGSGSGTDFTLTISSLEPEDVAVYYCFQGSVYPFTFGQGTKLEIKR
modifications: PBD drug-linker on the engineered cysteine at position 239 of the heavy chain constant region
In the case of B4, the “Cytotoxicity Data IC50 (ng/mL), Ramos cells” value (CD19 [6]) is reported as 0.1 ng/mL.

B5: hBU12ec (antibody, V domains shown)
VH: QVQLQESGPGLVKPSQTLSLTCTVSGGSISTSGMGVGWIRQHPGKGLEWIGHIWWDDDKRYNPALKSRVTISVDTSKNQFSLKLSSVTAADTAVYYCARMELWSYYFDYWGQGTLVTVSS
VL: EIVLTQSPATLSLSPGERATLSCSASSSVSYMHWYQQKPGQAPRLLIYDTSKLASGIPARFSGSGSGTDFTLTISSLEPEDVAVYYCFQGSVYPFTFGQGTKLEIKR
notes: Anti-CD19 antibody; also called parent antibody
B5 showed an IC50 (CD19 [7]) of 3.6 nM.
